Measured values reported in patent US20220372155A1 (LYVGEN BIOPHARMA, published 2022).

target: T1, human CD40 expressed on CHO cells (human, UniProt P25942 21-277); assay: FACS, CHO cells
T1 construct: whole, on cells; also used for the reporter cells over-expressing human CD40; also called cellular CD40; CHO-CD40 cells
T1 sequence (P25942 21-277): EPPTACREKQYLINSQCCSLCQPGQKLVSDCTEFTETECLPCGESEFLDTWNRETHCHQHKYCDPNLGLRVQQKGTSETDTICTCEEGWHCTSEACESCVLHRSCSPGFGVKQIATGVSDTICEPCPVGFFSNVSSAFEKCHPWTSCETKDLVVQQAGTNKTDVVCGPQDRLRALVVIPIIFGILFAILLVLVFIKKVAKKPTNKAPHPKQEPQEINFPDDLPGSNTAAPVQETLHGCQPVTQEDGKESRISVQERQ

| binding result | Binder |
| --- | --- |
| binds | TM378 (antibody, human IgG4 S228P, kappa, V domains shown, chimeric LYV378, human IgG4; also called chimeric counterpart TM378) VH: EVHLVESGGGLVQPGRSLKLSCAASGFTFTNYGLHWIRQAPTKGLEWVASISPSGGVTYYRDSVKGRFTISRDNGKTTLHLQMDSLRSEDTATYYCALPFLGWGGANWIAHWGQGTLVTVSS VL: DIQMTQSPASLSASLGETVSIECLASEDISNDLAWYQQKSGKSPQLLIYFVDRLLDGVPSRFSGSGSGTRHSLKISGMQPEDEADYFCQQSYKYPPTFGGGTKLELKR |
| binds | TM553 (antibody, human IgG2, kappa, VH-2/IgG2, VL-1/kappa) heavy: QVQLVESGGGLVQPGGSLKLSCATSGFNFNDSFMNWVRQASGKGLEWVGQIRNKNYNYATYYTESLEGRVTISRDDSKNTAYLQMNSLKTEDTAVYYCTSYYYDGFADYFDYWGQGTTVTVSSASTKGPSVFPLAPCSRSTSESTAALGCLVKDYFPEPVTVSWNSGALTSGVHTFPAVLQSSGLYSLSSVVTVPSSNFGTQTYTCNVDHKPSNTKVDKTVERKCCVECPPCPAPPVAGPSVFLFPPKPKDTLMISRTPEVTCVVVDVSHEDPEVQFNWYVDGVEVHNAKTKPREEQFNSTFRVVSVLTVVHQDWLNGKEYKCKVSNKGLPAPIEKTISKTKGQPREPQVYTLPPSREEMTKNQVSLTCLVKGFYPSDIAVEWESNGQPENNYKTTPPMLDSDGSFFLYSKLTVDKSRWQQGNVFSCSVMHEALHNHYTQKSLSLSPG light: DIQMTQSPSSLSASVGDRVTITCKASQNIYIYLNWYQQKPGKAPKLLIYNTNNLQTGVPSRFSGSGSGTDFTLTISSLQPEDFATYYCLQHSSRRTFGGGTKVEIKRTVAAPSVFIFPPSDEQLKSGTASVVCLLNNFYPREAKVQWKVDNALQSGNSQESVTEQDSKDSTYSLSSTLTLSKADYEKHKVYACEVTHQGLSSPVTKSFNRGEC |
| binds | LP3773 (antibody, human IgG1, kappa, VH-2/IgG1mut, VL-1/kappa) heavy: QVQLVESGGGLVQPGGSLKLSCATSGFNFNDSFMNWVRQASGKGLEWVGQIRNKNYNYATYYTESLEGRVTISRDDSKNTAYLQMNSLKTEDTAVYYCTSYYYDGFADYFDYWGQGTTVTVSSASTKGPSVFPLAPSSKSTSGGTAALGCLVKDYFPEPVTVSWNSGALTSGVHTFPAVLQSSGLYSLSSVVTVPSSSLGTQTYICNVNHKPSNTKVDKKVEPKSCDKTHTCPPCPAPELLGPSVFLFPPKPKDTLMISRTPEVTCVVVDVEHEDPEVKFNWYVDGVEVHNAKTKPREEQYNSTYRVVSVLTVLHQDWLNGKEYKCKVSNKALPAPIEKTISKAKGQPREPQVYTLPPSREEMTKNQVSLTCLVKGFYPSDIAVEWESNGQPENNYKTTPPVLDSDGSFFLYSKLTVDKSRWQQGNVFSCSVMHEALHNHYTQKSLSLSPG light: DIQMTQSPSSLSASVGDRVTITCKASQNIYIYLNWYQQKPGKAPKLLIYNTNNLQTGVPSRFSGSGSGTDFTLTISSLQPEDFATYYCLQHSSRRTFGGGTKVEIKRTVAAPSVFIFPPSDEQLKSGTASVVCLLNNFYPREAKVQWKVDNALQSGNSQESVTEQDSKDSTYSLSSTLTLSKADYEKHKVYACEVTHQGLSSPVTKSFNRGEC |
| binds | TM738 (antibody, human IgG1, kappa, V domains shown, VH-2Q/IgG1mut, VL-1/kappa) VH: QVQLVESGGGLVQPGGSLKLSCATSGFNFQDSFMNWVRQASGKGLEWVGQIRNKNYNYATYYTESLEGRVTISRDDSKNTAYLQMNSLKTEDTAVYYCTSYYYDGFADYFDYWGQGTTVTVSS VL: DIQMTQSPSSLSASVGDRVTITCKASQNIYIYLNWYQQKPGKAPKLLIYNTNNLQTGVPSRFSGSGSGTDFTLTISSLQPEDFATYYCLQHSSRRTFGGGTKVEIKR |
| binds | Ly181 (antibody, human IgG2, kappa, VH-2Y/IgG2, VL-1/kappa) heavy: QVQLVESGGGLVQPGGSLKLSCATSGFNFNDYFMNWVRQASGKGLEWVGQIRNKNYNYATYYTESLEGRVTISRDDSKNTAYLQMNSLKTEDTAVYYCTSYYYDGFADYFDYWGQGTTVTVSSASTKGPSVFPLAPCSRSTSESTAALGCLVKDYFPEPVTVSWNSGALTSGVHTFPAVLQSSGLYSLSSVVTVPSSNFGTQTYTCNVDHKPSNTKVDKTVERKCCVECPPCPAPPVAGPSVFLFPPKPKDTLMISRTPEVTCVVVDVSHEDPEVQFNWYVDGVEVHNAKTKPREEQFNSTFRVVSVLTVVHQDWLNGKEYKCKVSNKGLPAPIEKTISKTKGQPREPQVYTLPPSREEMTKNQVSLTCLVKGFYPSDIAVEWESNGQPENNYKTTPPMLDSDGSFFLYSKLTVDKSRWQQGNVFSCSVMHEALHNHYTQKSLSLSPG light: DIQMTQSPSSLSASVGDRVTITCKASQNIYIYLNWYQQKPGKAPKLLIYNTNNLQTGVPSRFSGSGSGTDFTLTISSLQPEDFATYYCLQHSSRRTFGGGTKVEIKRTVAAPSVFIFPPSDEQLKSGTASVVCLLNNFYPREAKVQWKVDNALQSGNSQESVTEQDSKDSTYSLSSTLTLSKADYEKHKVYACEVTHQGLSSPVTKSFNRGEC |
| binds | TM739 (antibody, human IgG1, kappa, V domains shown, VH-2A/IgG1mut, VL-1/kappa) VH: QVQLVESGGGLVQPGGSLKLSCATSGFNFNDAFMNWVRQASGKGLEWVGQIRNKNYNYATYYTESLEGRVTISRDDSKNTAYLQMNSLKTEDTAVYYCTSYYYDGFADYFDYWGQGTTVTVSS VL: DIQMTQSPSSLSASVGDRVTITCKASQNIYIYLNWYQQKPGKAPKLLIYNTNNLQTGVPSRFSGSGSGTDFTLTISSLQPEDFATYYCLQHSSRRTFGGGTKVEIKR |
| binds | TM550 (antibody, human IgG2, kappa, V domains shown, CDR grafted humanized LYV377) VH: EVQLVESGGGLVQPGGSLKLSCAASGFNFNDSFMNWVRQASGKGLEWVGQIRNKNYNYATYYTESLEGRFTISRDDSKNTAYLQMNSLKTEDTAVYYCTRYYYDGFADYFDYWGQGTTVTVSS VL: DIQMTQSPSSLSASVGDRVTITCKASQNIYIYLNWYQQKPGKAPKLLIYNTNNLQTGVPSRFSGSGSGTDFTLTISSLQPEDFATYYCLQHSSRRTFGGGTKVEIKR |
| binds | TM740 (antibody, human IgG1, kappa, VH-2Y/IgG1mut, VL-1/kappa) heavy: QVQLVESGGGLVQPGGSLKLSCATSGFNFNDYFMNWVRQASGKGLEWVGQIRNKNYNYATYYTESLEGRVTISRDDSKNTAYLQMNSLKTEDTAVYYCTSYYYDGFADYFDYWGQGTTVTVSSASTKGPSVFPLAPSSKSTSGGTAALGCLVKDYFPEPVTVSWNSGALTSGVHTFPAVLQSSGLYSLSSVVTVPSSSLGTQTYICNVNHKPSNTKVDKKVEPKSCDKTHTCPPCPAPELLGPSVFLFPPKPKDTLMISRTPEVTCVVVDVEHEDPEVKFNWYVDGVEVHNAKTKPREEQYNSTYRVVSVLTVLHQDWLNGKEYKCKVSNKALPAPIEKTISKAKGQPREPQVYTLPPSREEMTKNQVSLTCLVKGFYPSDIAVEWESNGQPENNYKTTPPVLDSDGSFFLYSKLTVDKSRWQQGNVFSCSVMHEALHNHYTQKSLSLSPG light: DIQMTQSPSSLSASVGDRVTITCKASQNIYIYLNWYQQKPGKAPKLLIYNTNNLQTGVPSRFSGSGSGTDFTLTISSLQPEDFATYYCLQHSSRRTFGGGTKVEIKRTVAAPSVFIFPPSDEQLKSGTASVVCLLNNFYPREAKVQWKVDNALQSGNSQESVTEQDSKDSTYSLSSTLTLSKADYEKHKVYACEVTHQGLSSPVTKSFNRGEC |
| binds | TM559 (antibody, human IgG2, kappa, LYV378_VH-1/IgG2, LYV378_VL-1/kappa) heavy: EVQLVESGGGLVQPGGSLRLSCAASGFTFTNYGLHWVRQAPGKGLEWVSSISPSGGVTYYRDSVKGRFTISRDNSKNTLYLQMNSLRAEDTAVYYCAKPFLGWGGANWIAHWGQGTLVTVSSASTKGPSVFPLAPCSRSTSESTAALGCLVKDYFPEPVTVSWNSGALTSGVHTFPAVLQSSGLYSLSSVVTVPSSNFGTQTYTCNVDHKPSNTKVDKTVERKCCVECPPCPAPPVAGPSVFLFPPKPKDTLMISRTPEVTCVVVDVSHEDPEVQFNWYVDGVEVHNAKTKPREEQFNSTFRVVSVLTVVHQDWLNGKEYKCKVSNKGLPAPIEKTISKTKGQPREPQVYTLPPSREEMTKNQVSLTCLVKGFYPSDIAVEWESNGQPENNYKTTPPMLDSDGSFFLYSKLTVDKSRWQQGNVFSCSVMHEALHNHYTQKSLSLSPG light: DIQMTQSPSSLSASVGDRVTITCLASEDISNDLAWYQQKPGKAPKLLIYFVDRLLDGVPSRFSGSGSGTDFTLTISSLQPEDFATYYCQQSYKYPPTFGQGTKLEIKRTVAAPSVFIFPPSDEQLKSGTASVVCLLNNFYPREAKVQWKVDNALQSGNSQESVTEQDSKDSTYSLSSTLTLSKADYEKHKVYACEVTHQGLSSPVTKSFNRGEC |
| binds | LP3781 (antibody, human IgG1, kappa, LYV378_VH-1/IgG1, LYV378_VL-1/kappa; also called TM3781) heavy: not shown light: DIQMTQSPSSLSASVGDRVTITCLASEDISNDLAWYQQKPGKAPKLLIYFVDRLLDGVPSRFSGSGSGTDFTLTISSLQPEDFATYYCQQSYKYPPTFGQGTKLEIKRTVAAPSVFIFPPSDEQLKSGTASVVCLLNNFYPREAKVQWKVDNALQSGNSQESVTEQDSKDSTYSLSSTLTLSKADYEKHKVYACEVTHQGLSSPVTKSFNRGEC |
| binds | LP3782 (antibody, human IgG4 S228P, kappa, LYV378_VH-1/IgG4, LYV378_VL-1/kappa; also called TM3782) heavy: not shown light: DIQMTQSPSSLSASVGDRVTITCLASEDISNDLAWYQQKPGKAPKLLIYFVDRLLDGVPSRFSGSGSGTDFTLTISSLQPEDFATYYCQQSYKYPPTFGQGTKLEIKRTVAAPSVFIFPPSDEQLKSGTASVVCLLNNFYPREAKVQWKVDNALQSGNSQESVTEQDSKDSTYSLSSTLTLSKADYEKHKVYACEVTHQGLSSPVTKSFNRGEC |
| binds | LP3783 (antibody, human IgG1, kappa, LYV378_VH-1/IgG1mut, LYV378_VL-1/kappa; also called TM3783; Ly3783) heavy: EVQLVESGGGLVQPGGSLRLSCAASGFTFTNYGLHWVRQAPGKGLEWVSSISPSGGVTYYRDSVKGRFTISRDNSKNTLYLQMNSLRAEDTAVYYCAKPFLGWGGANWIAHWGQGTLVTVSSASTKGPSVFPLAPSSKSTSGGTAALGCLVKDYFPEPVTVSWNSGALTSGVHTFPAVLQSSGLYSLSSVVTVPSSSLGTQTYICNVNHKPSNTKVDKKVEPKSCDKTHTCPPCPAPELLGPSVFLFPPKPKDTLMISRTPEVTCVVVDVEHEDPEVKFNWYVDGVEVHNAKTKPREEQYNSTYRVVSVLTVLHQDWLNGKEYKCKVSNKALPAPIEKTISKAKGQPREPQVYTLPPSREEMTKNQVSLTCLVKGFYPSDIAVEWESNGQPENNYKTTPPVLDSDGSFFLYSKLTVDKSRWQQGNVFSCSVMHEALHNHYTQKSLSLSPG light: DIQMTQSPSSLSASVGDRVTITCLASEDISNDLAWYQQKPGKAPKLLIYFVDRLLDGVPSRFSGSGSGTDFTLTISSLQPEDFATYYCQQSYKYPPTFGQGTKLEIKRTVAAPSVFIFPPSDEQLKSGTASVVCLLNNFYPREAKVQWKVDNALQSGNSQESVTEQDSKDSTYSLSSTLTLSKADYEKHKVYACEVTHQGLSSPVTKSFNRGEC |
